In patent US20160083733A1, “NOVEL TREATMENT OF METABOLIC DISEASES” (UNIVERSITY OF BREMEN, priority 2013, published 2016):

B1: dnMST1: kinase-dead, dominant negative MST1 mutant (K59R) expressed from plasmid (protein, UniProt Q13043 1-487, looked up, variant K59R)
Serine/threonine-protein …: METVQLRNPPRRQLKKLDEDSLTKQPEEVFDVLEKLGEGSYGSVYKAIHKETGQIVAIRQVPVESDLQEIIKEISIMQQCDSPHVVKYYGSYFKNTDLWIVMEYCGAGSVSDIIRLRNKTLTEDEIATILQSTLKGLEYLHFMRKIHRDIKAGNILLNTEGHAKLADFGVAGQLTDTMAKRNTVIGTPFWMAPEVIQEIGYNCVADIWSLGITAIEMAEGKPPYADIHPMRAIFMIPTNPPPTFRKPELWSDNFTDFVKQCLVKSPEQRATATQLLQHPFVRSAKGVSILRDLINEAMDVKLKRQESQQREVDQDDEENSEEDEMDSGTMVRAVGDEMGTVRVASTMTDGANTMIEHDDTLPSQLGTMVINAEDEEEEGTMKRRDETMQPAKPSFLEYFEQKEKENQINSFGKSVPGPLKNSSDWKIPQDGDYEFLKSWTVEDLQKRLLALDPMMEQEIEEIRQKYQSKRQPILDAIEAKKRRQQNF
B2: dnJNK1: dominant negative mutant of JNK1 expressed from plasmid pCDNA3 Jnk1a1 (apf) (protein, UniProt P45983 1-427, looked up, variant T183A Y185F)
Mitogen-activated protein …: MSRSKRDNNFYSVEIGDSTFTVLKRYQNLKPIGSGAQGIVCAAYDAILERNVAIKKLSRPFQNQTHAKRAYRELVLMKCVNHKNIIGLLNVFTPQKSLEEFQDVYIVMELMDANLCQVIQMELDHERMSYLLYQMLCGIKHLHSAGIIHRDLKPSNIVVKSDCTLKILDFGLARTAGTSFMMAPFVVTRYYRAPEVILGMGYKENVDLWSVGCIMGEMVCHKILFPGRDYIDQWNKVIEQLGTPCPEFMKKLQPTVRTYVENRPKYAGYSFEKLFPDVLFPADSEHNKLKASQARDLLSKMLVIDASKRISVDEALQHPYINVWYDPSEAEAPPPKIPDKQLDEREHTIEEWKELIYKEVMDLEERTKNGVIRGQPSPLGAAVINGSQHPSSSSSVNDVSSMSTDPTLASDTDSSLEAAAGPLGCCR

Tests used:
[1] = system: INS-1E cells; assay: Apoptotic markers, cytochrome c release and PDX1 in INS-1E cells under diabetogenic conditions; type: cell-based, rat; conditions: 33.3 mM glucose for 48 h, overexpression of dnMST1
Source text: (§1) Human islets were isolated from twenty pancreases of healthy organ donors and from five with T2D at the University of Illinois at Chicago or Lille University and cultured on extracellular matrix (ECM) coated dishes (Novamed, Jerusalem, Israel) as described previously (Schulthess et al., Cell. Metab. 9 (2009) 125-139). Islet purity was greater than 95% as judged by dithizone staining (if this degree of purity was not achieved by routine isolation, islets were handpicked). Islets from MST1^−/− mice and their WT littermates were isolated as described previously (Schulthess et al., Cell. Metab. 9 (2009) 125-139). […]
At the end of the incubation periods, islets and INS1E cells were washed in ice-cold PBS and lysed in lysis buffer containing 20 mM Tris acetate, 0.27 M sucrose, 1 mM EDTA, 1 mM EGTA, 50 mM NaF, 1% Triton X-100, 5 mM sodium pyrophosphate and 10 mM β-glycerophosphate. […] Protein concentrations were determined with the BCA protein assay (Pierce). […] Membrane was developed using a chemiluminescence assay system (Pierce) and analyzed using DocIT®LS image acquisition 6.6a (UVP BioImaging Systems, Upland, Calif., USA). […]

[2] = system: PDX1; assay: PDX1 protein level, degradation and ubiquitination in HEK293 cells co-transfected with MST1; type: cell-based, mouse; conditions: co-transfection with PDX1 in HEK293 cells
Source text: pCMV-myc-MST1 and kinase-dead (MST1-K59; dnMST1) are described in Yamamoto et al., J. Clin. Invest. 111 (2003), 1463-1474. Mouse pB.RSV.PDX1-GFP is described in Kawamori et al., Diabetes 52 (2003) 2896-2904. pcDNA3 Myr-HA Akt1, HA-Ubiquitin and pCDNA3 Jnk1a1 (apf)(dn-JNK) plasmids were obtained from Addgene (Cambridge, Mass.). Mouse PDX1 mutants (T11, T126, T152, T155, T214 and T231) in pCGIG5 vector were generated by site-directed mutagenesis as described previously (Frogne et al., 7 (2012), e35233). All mutations were verified by sequencing. To make bacterial expression plasmids for PDX1 mutants, the complete mouse PDX1 CDS (wild type and mutants) has been amplified by PCR using a specific set of primers from pCGIG5 plasmids and cloned into a pGEX-6P-1 bacterial expression vector. The rat insulin driven luciferase vector (RIP-Luc) was constructed by subcloning a 700 by fragment containing −660 bp of the rat 2 insulin promoter into a pMCS-Green-Renilla-Luc vector (Thermo Scientific). pCMV-Red firefly Luc vector was obtained from Thermo Scientific.
HEK293 cells were cultured in 10-cm cell culture dishes and transfected with HA-ubiquitin, PDX1 and MST1 expression plasmids for 48 h. For ubiquitination in human islets, 5000 islets per condition were transfected with ubiquitin plasmid. After 24 h, islets were infected with Ad-GFP or Ad-MST1 for 6 h and kept for another 48 h. […]

[3] = system: human islets; assay: MST1 overexpression (Ad-MST1)-induced apoptosis in human islets; type: cell-based; conditions: Ad-MST1 48 h
Source text: as §1
Pancreatic tissues were processed as previously described (Shu et al., Diabetes 57 (2007), 645-53). […] Slides were mounted with Vectashield with 4′6-diamidino-2-phenylindole (DAPI) (Vector Labs). β-cell apoptosis for mouse sections or primary islets cultured on ECM dishes was analyzed by the terminal deoxynucleotidyl transferase-mediated dUTP nick-end labeling (TUNEL) technique according to the manufacturer's instructions (In Situ Cell Death Detection Kit, TMR red; Roche) and double stained for insulin. Fluorescence was analyzed using a Nikon MEA53200 (Nikon GmbH, Dusseldorf, Germany) microscope and images were acquired using NIS-Elements software (Nikon). […]

| Molecule | glucose-induced caspase-3 and PARP cleavage [1] | PDX1 level [2] | MST1-induced increase in Bim and subsequent caspase-3 cleavage [3] |
| --- | --- | --- | --- |
| B1 | completely inhibited | no effect |  |
| B2 |  |  | prevented |
